Test results: the supplement of paper PMC9876800

System: peptide library, one residue held at a place counted from the S/T acceptor
Experiment: relative phosphorylation of the sub-library (ratio to the mean residue at this position); higher = residue favoured
In short: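 Purified recombinant kinases, either human or orthologue constructs, were incubated in 384-well plates with biotinylated degenerate peptide sub-libraries. Each sub-library fixed one residue at one position around a central Ser/Thr. Peptides at 50 μM and 50 μM ATP spiked with γ-32P-ATP were used for 90 min under kinase-specific conditions, and spots on streptavidin membranes were phosphorimaged and quantified by densitometry. Relative sub-library phosphorylation is expressed as a ratio to the mean residue at that position.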

Chain of PLK2, construct: aa57-360, human (Q9NYY3 57-360, looked up): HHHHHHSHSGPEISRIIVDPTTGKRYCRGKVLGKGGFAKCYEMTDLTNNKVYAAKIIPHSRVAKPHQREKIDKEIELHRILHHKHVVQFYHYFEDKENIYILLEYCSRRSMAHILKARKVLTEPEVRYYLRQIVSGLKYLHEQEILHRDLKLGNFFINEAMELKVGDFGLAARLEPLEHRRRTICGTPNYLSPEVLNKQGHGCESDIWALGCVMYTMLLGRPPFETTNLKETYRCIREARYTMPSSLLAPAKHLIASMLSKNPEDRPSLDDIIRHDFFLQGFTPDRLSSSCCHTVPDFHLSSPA
Chain of PRKCZ, construct: Full length, human (Q05513 whole entry, looked up): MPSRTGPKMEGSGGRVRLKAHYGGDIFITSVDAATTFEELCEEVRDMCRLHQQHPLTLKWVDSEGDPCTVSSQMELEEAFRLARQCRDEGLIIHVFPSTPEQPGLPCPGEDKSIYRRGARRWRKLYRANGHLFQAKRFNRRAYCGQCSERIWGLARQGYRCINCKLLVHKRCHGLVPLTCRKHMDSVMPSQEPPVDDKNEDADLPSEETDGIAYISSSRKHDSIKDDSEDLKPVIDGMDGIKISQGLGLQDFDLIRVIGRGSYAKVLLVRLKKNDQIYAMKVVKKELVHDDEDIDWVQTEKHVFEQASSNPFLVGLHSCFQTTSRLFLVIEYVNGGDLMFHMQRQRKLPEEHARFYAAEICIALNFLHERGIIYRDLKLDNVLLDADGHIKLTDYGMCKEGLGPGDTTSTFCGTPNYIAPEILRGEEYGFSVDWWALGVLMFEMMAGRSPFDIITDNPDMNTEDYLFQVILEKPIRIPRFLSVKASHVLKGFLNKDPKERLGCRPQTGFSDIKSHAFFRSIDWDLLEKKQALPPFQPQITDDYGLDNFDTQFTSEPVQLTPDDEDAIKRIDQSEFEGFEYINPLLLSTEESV

PLK2, construct: aa57-360, human (from UniProt Q9NYY3)
relative phosphorylation
Conditions	at +1	at +2	at +3	at +4	at -1	at -2	at -3	at -4	at -5
A fixed	0.569	0.927	0.69	0.793	0.879	0.734	0.559	0.825	0.975
D fixed	0.52	2.18	2.27	1.98	2.51	3.13	1.77	1.74	1.46
E fixed	0.87	2.23	2.59	2.2	1.61	2.35	7.3	2.19	1.53
F fixed	3.75	0.919	0.861	0.916	0.658	0.508	0.751	1.06	1.37
G fixed	0.529	0.54	0.81	0.842	0.587	0.655	0.583	0.9	1.25
H fixed	0.628	0.999	0.914	0.988	1.16	0.8	0.625	0.888	1.11
I fixed	1.3	0.971	0.835	0.974	0.697	0.558	0.318	0.888	0.806
K fixed	0.452	0.227	0.358	0.442	0.634	0.3	0.292	0.638	0.722
L fixed	1.02	0.707	0.874	0.982	0.701	1.23	0.608	1.11	0.844
M fixed	1.78	1.01	0.85	0.869	0.874	1.24	0.763	0.866	0.842
N fixed	0.567	0.99	1.05	0.866	1.24	1.88	0.687	1	0.955
P fixed	0.159	0.532	0.609	1.07	1.46	0.736	0.482	0.928	0.955
Q fixed	1.2	0.752	0.987	0.877	0.833	0.883	0.717	0.846	0.692
R fixed	0.691	0.438	0.396	0.441	0.79	0.465	0.333	0.609	0.694
V fixed	0.994	0.841	0.765	0.554	0.899	0.391	0.269	0.775	0.757
W fixed	0.683	1.31	1.08	1.24	0.469	0.458	0.48	0.907	0.977
Y fixed	1.28	1.44	1.05	0.968	0.997	0.676	0.459	0.845	1.06
pThr fixed	1.33	2.29	2.39	3.26	1.07	1.08	1.05	1.68	1.04
pTyr fixed	1.4	11	2.89	3.61	4.55	0.912	1.2	1.6	1.63

PRKCD, construct: Full length, human (from UniProt Q05655)
relative phosphorylation
Conditions	at +1	at +2	at +3	at +4	at -1	at -2	at -3	at -4	at -5
A fixed	0.496	0.437	0.73	0.842	0.91	0.9	0.795	1.04	1.04
D fixed	0.253	0.525	0.696	1.03	0.598	0.587	0.699	0.932	1.2
E fixed	0.309	0.317	0.608	0.63	0.465	0.531	0.579	0.972	0.903
F fixed	1.51	0.438	0.642	0.4	0.549	0.621	0.594	0.703	0.815
G fixed	0.553	0.459	1.11	1.28	1.64	1.2	0.977	1.36	1.18
H fixed	0.803	1.39	0.871	1.23	0.961	1.13	1.17	1.14	1.07
I fixed	1.65	0.64	0.781	0.695	0.355	0.466	0.401	0.617	0.809
K fixed	1.74	3.33	2.15	2.05	2.3	1.9	1.91	1.55	1.48
L fixed	1.21	0.564	0.846	0.757	0.658	0.506	0.464	0.608	0.78
M fixed	1.58	0.69	0.801	0.731	0.852	0.677	0.576	0.807	0.657
N fixed	0.685	1	1.04	1.13	1.38	1.22	1.07	1.1	0.932
P fixed	0.343	0.487	0.68	1.54	1.29	0.835	1.12	1.18	1.17
Q fixed	1.18	0.93	1.04	1.19	1.35	1.23	1.01	0.979	0.868
R fixed	1.6	3.33	2.03	1.48	1.74	3.16	3.86	1.58	1.65
V fixed	1.39	0.648	0.742	0.65	0.583	0.522	0.406	0.691	0.769
W fixed	0.743	0.741	1.12	0.746	0.527	0.806	0.658	1.1	0.993
Y fixed	0.961	1.07	1.11	0.625	0.834	0.713	0.707	0.638	0.685
pThr fixed	0.685	0.458	0.52	0.675	0.341	0.563	0.624	0.713	0.644
pTyr fixed	0.469	0.662	0.56	0.396	0.465	0.576	0.541	0.524	0.673

PRKCH, construct: Full length, human (from UniProt P24723)
relative phosphorylation
Conditions	at +1	at +2	at +3	at +4	at -1	at -2	at -3	at -4	at -5
A fixed	0.536	0.49	0.738	0.933	1.07	0.893	0.78	1.1	1.19
D fixed	0.187	0.163	0.449	0.528	0.548	0.496	0.423	0.718	0.638
E fixed	0.282	0.15	0.547	0.496	0.55	0.467	0.469	0.799	0.721
F fixed	1.78	0.68	0.858	0.658	0.632	0.721	0.813	0.773	1.23
G fixed	0.374	0.299	1.06	0.926	1.42	1.13	0.776	1.12	0.955
H fixed	0.661	1.39	1.28	1.45	0.981	1.24	1.39	1.15	1.12
I fixed	1.47	0.622	0.754	0.632	0.397	0.405	0.444	0.614	0.818
K fixed	1.86	3.28	2.09	2.44	1.98	1.9	1.88	1.72	1.53
L fixed	1.19	0.561	0.883	0.64	0.733	0.438	0.551	0.66	0.852
M fixed	1.43	0.745	0.785	0.708	0.929	0.592	0.695	0.869	0.722
N fixed	0.548	0.668	0.974	1.04	1.36	1.32	0.995	1.06	0.97
P fixed	0.286	0.212	0.554	1.11	1.11	0.736	0.821	1.05	0.798
Q fixed	1.12	0.583	0.839	0.986	0.999	1.28	0.842	0.927	0.878
R fixed	2.06	4.08	2.24	1.99	2.16	3.2	4.05	1.67	1.75
V fixed	1.31	0.596	0.754	0.715	0.593	0.447	0.466	0.716	0.847
W fixed	0.831	0.669	1.05	1	0.61	1.02	0.786	1.18	1.12
Y fixed	1.07	1.81	1.16	0.753	0.94	0.696	0.824	0.878	0.857
pThr fixed	0.833	0.36	0.641	0.773	0.411	0.691	0.644	0.881	0.699
pTyr fixed	0.574	0.268	0.811	0.593	0.751	0.641	0.847	0.869	1.09

PRKCZ, construct: Full length, human (from UniProt Q05513)
relative phosphorylation
Conditions	at +1	at +2	at +3	at +4	at -1	at -2	at -3	at -4	at -5
A fixed	0.673	0.759	0.778	1	1.16	0.809	0.78	1.13	1.32
D fixed	0.193	0.206	0.324	0.596	0.387	0.399	0.425	0.666	0.79
E fixed	0.293	0.203	0.319	0.563	0.375	0.355	0.437	0.661	0.732
F fixed	1.37	0.662	0.927	0.827	0.468	1	0.842	0.827	1.23
G fixed	1.1	0.52	1.07	1.07	1.21	1.45	1.28	1.57	1.52
H fixed	0.752	1.35	1.33	1.35	1.06	1.07	1.08	1.03	1.08
I fixed	0.868	0.646	0.646	0.608	0.259	0.288	0.378	0.468	0.533
K fixed	2.46	2.13	2.15	2.05	3.12	1.18	1.91	1.29	1.15
L fixed	0.768	0.577	0.834	0.64	0.457	0.47	0.535	0.59	0.803
M fixed	1.42	0.912	0.759	0.706	0.755	0.731	0.659	0.783	0.694
N fixed	0.832	0.908	0.975	1.08	1.26	1.19	1.11	1.4	1.25
P fixed	0.344	0.512	0.706	1.17	0.986	1.16	1.1	1.45	1.12
Q fixed	1.23	0.916	0.978	1.14	1.19	0.983	1.08	1.04	0.788
R fixed	2.39	4.07	2.08	1.34	2.43	2.99	3.2	1.45	1.31
V fixed	0.844	0.682	0.671	0.703	0.406	0.342	0.415	0.483	0.607
W fixed	0.61	0.803	1.28	1.13	0.579	0.973	0.909	1.33	1.23
Y fixed	0.841	1.14	1.17	1.01	0.89	1.61	0.855	0.824	0.837
pThr fixed	0.461	0.391	0.519	0.651	0.314	0.632	0.696	0.847	0.985
pTyr fixed	0.363	0.396	0.623	0.538	0.451	0.621	0.831	0.761	0.857
